Data from US6723838.

Target: purified H-ras GST fusion protein [GST: P08515]
Sequence (P08515 whole entry, looked up, the tested form may be a part): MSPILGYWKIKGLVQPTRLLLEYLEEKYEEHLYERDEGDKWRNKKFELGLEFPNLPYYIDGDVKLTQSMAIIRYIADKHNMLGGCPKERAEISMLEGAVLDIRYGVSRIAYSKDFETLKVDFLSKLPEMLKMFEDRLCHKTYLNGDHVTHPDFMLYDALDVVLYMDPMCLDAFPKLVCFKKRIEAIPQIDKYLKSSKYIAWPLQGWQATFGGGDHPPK

B1: GST fusion protein of the GAP domain (266-521) of SYNGAP (protein)
chain: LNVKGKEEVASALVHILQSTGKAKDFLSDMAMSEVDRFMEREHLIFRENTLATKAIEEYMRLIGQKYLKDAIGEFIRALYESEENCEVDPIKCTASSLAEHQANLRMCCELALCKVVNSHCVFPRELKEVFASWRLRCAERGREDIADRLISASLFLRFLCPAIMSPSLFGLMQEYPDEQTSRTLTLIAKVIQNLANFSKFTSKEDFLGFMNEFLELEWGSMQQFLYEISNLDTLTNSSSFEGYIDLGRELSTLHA
GTPase activity of Ras ([gamma-32P]-GTP filter assay): addition of the GST fusion protein of the GAP domain of SYNGAP dramatically stimulated the GTPase activity of Ras
